Key:
MCF-7 cells = experiment: HRG dependent MCF-7 proliferation assay; format: cell-based, human; details: HRG dependent MCF-7 assay
Description: (§1) SK-BR-3 cells were cultured in DMEM-F/12 supplemented with L-glutamine and 10% heat inactivated FBS. BxPC-3-luc2 cells were cultured in RPMI1640 supplemented with 10% heat inactivated FBS. MCF-7 cells were cultured in RPMI1640 supplemented with 100 μM, NEAA1 mM sodium pyruvate, 4 μg/ml insulin and 10% heat inactivated FBS.
For the proliferation assay of MCF-7 and BxPC-3-luc2 cells, subconfluent cell cultures were washed with PBS, trypsinized and trypsin was inactivated by adding culture medium. Cells were washed twice in large volumes of assay medium (RPMI 1640 medium containing 0.05% BSA and 10 μg/ml Holo Transferrin). MCF-7 cells were diluted to 5×10^4 cells/ml in culture medium. Antibodies were diluted to concentrations of 10 and 1 μg/ml and added in a volume of 100 μl in 96-well black bottom plates (ABgene AB-0932). Cells were added at a density of 5000 cells/well in the presence of 1 ng/ml final concentration human Recombinant Human NRG1-beta 1/HRG1-beta 1 EGF Domain; (396-HB-050 RND). Human NRG1-beta 1/HRG1-beta 1 EGF Domain will hereinafter be referred to as HRG. […] Fluorescence was measured at 550 nm excitation with 590 nm emission wave length.
The IC50 for the bispecific antibodies, monoclonals and comparator antibodies was calculated using non-linear regression analysis with Prism software.

BxPC-3-luc2 cells = experiment: HRG dependent BxPC-3-luc2 proliferation assay; format: cell-based, human
Description: as §1
Antibodies were diluted to concentrations of 10 and 1 μg/ml and added in a volume of 100 μl in 96-well black bottom plates (ABgene AB-0932). […] Fluorescence was measured at 550 nm excitation with 590 nm emission wave length.

IC50 (MCF-7 cells): 0.504 nM
B1: #Ab6: anti-HER3 antibody of Merrimack Pharmaceuticals, recloned in IgG1 backbone (antibody, chains of the INN, looked up, V domains shown)
VH: EVQLLESGGGLVQPGGSLRLSCAASGFTFSHYVMAWVRQAPGKGLEWVSSISSSGGWTLYADSVKGRFTISRDNSKNTLYLQMNSLRAEDTAVYYCTRGLKMATIFDYWGQGTLVTVSS
VL: QSALTQPASVSGSPGQSITISCTGTSSDVGSYNVVSWYQQHPGKAPKLIIYEVSQRPSGVSNRFSGSKSGNTASLTISGLQTEDEADYYCCSYAGSSIFVIFGGGTKVTVL
modifications: IgG1
notes: anti-HER3 antibody of Merrimack Pharmaceuticals, recloned in IgG1 backbone
BxPC3 % Inhibition (BxPC-3-luc2 cells): −7%
